A word on the Kd: it is the concentration at which binding is half-saturated. One may read the koff as the rate constant with which the complex falls apart. Usually kon stands for the rate constant with which the complex forms.

Assay [1] addresses T1, peptide AA 36-55 of GP73 (rGP73), SSRSVDLQTRIMELEGRVRR (human, biotinylated in the ELISAs (position not given)).
T1 construct: also called GP73 peptide; peptide rGP73 (GP73 AA 36 to 55)
T1 peptide: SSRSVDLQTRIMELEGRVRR
The assay can be described thus: SPR (Biacore), fit for 1:1 binding, mean of measurements 1 + 2, GP73 peptide.

In assay [2] the target is T2, GP73 (endogenous human GP73 on HEK 293, HuH7, JHH4 and DU145 cells and in human tissue sections).
T2 construct: One entry for all cell lines and tissues; also called GOLM1; GOLPH2
T2 antigen: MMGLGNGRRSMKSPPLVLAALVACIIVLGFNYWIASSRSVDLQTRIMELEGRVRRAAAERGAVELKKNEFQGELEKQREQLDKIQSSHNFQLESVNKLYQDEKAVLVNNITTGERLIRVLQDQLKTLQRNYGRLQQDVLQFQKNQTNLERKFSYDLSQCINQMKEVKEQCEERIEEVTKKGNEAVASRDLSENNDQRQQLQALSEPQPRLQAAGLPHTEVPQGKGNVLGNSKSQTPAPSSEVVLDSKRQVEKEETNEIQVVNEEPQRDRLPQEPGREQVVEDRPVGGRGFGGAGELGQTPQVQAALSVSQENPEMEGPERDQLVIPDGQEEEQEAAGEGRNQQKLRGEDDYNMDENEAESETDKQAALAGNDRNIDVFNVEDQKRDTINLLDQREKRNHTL
Briefly: immunohistochemistry, paraffin section of hepatitis liver, anti-mouse secondary. An excerpt:
FIG. 5 Immunohistochemical staining of tissues with the anti-rGOLPH antibody G2-2 and controls. Paraffin embedded tissues of A normal liver B hepatitis liver C and D hepatocellular carcinoma (HCC) were stained with murine G2-2 (mG2-2) (A,B,C) or anti-GP73 antibody M06A (Sigma) followed by secondary staining with an anti-mouse antibody and examined under a microscope by 40× magnification as described in Example 3.
Paraffin embedded tissues of normal liver, hepatitis liver, hepatocellular carcinoma (HCC), endometrium carcinoma, ovarian carcinoma, melanoma, small cell lung cancer and gastric cancer were stained with murine G2-2 (mG2-2) or mouse anti GOLPH (M06A Sigma) followed by secondary staining with an anti-mouse IgG. Nuclei were stained with hematoxylin (blue), cytoplasma was stained with hemalum-eosin.

Assay [3] has as its target T3, human GP73 (GOLM1, GOLPH2) in Alexander (PLC/PRF/5) cells (human, UniProt Q8NBJ4 1-401).
T3 construct: Endogenous protein of the cell line; cells were fixed with paraformaldehyde and treated with saponin
T3 sequence: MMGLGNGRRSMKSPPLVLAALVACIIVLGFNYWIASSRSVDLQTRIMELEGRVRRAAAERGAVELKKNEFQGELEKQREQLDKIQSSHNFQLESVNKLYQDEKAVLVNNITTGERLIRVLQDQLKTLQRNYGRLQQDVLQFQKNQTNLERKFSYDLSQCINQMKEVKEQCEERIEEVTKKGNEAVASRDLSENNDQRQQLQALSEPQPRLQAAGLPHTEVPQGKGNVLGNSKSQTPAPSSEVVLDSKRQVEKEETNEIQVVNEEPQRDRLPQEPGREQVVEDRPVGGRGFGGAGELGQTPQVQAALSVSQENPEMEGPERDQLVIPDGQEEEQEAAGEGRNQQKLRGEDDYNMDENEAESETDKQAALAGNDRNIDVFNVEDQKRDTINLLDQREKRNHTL
The assay can be described thus: immunofluorescence on fixed, saponin treated Alexander cells. Here is the method: Alexander cells were grown on 4 chamber slides, fixed with 4% paraformaldehyde, treated with 0.2% Saponin and blocked with 10% bovine serum albumin. Cells were incubated for one hour with goat anti-GP73 (santa cruz sc-48010) and mG2-2 and washed. Bound antibodies were stained with anti goat Alexa Fluor 488 (abeam ab150129) and anti mouse Alexa Fluor 647 (abeam ab150115). Nuclei were treated with DAPI.

The target of assay [4] is T2, GP73 (endogenous human GP73 on HEK 293, …). Briefly: flow cytometry of antibody left on the surface of HuH7 cells (panel title) after loading at 4°C; detection with APC anti-human Fab. Here is the method:
Cells were incubated with 10 ug/ml of G2-2 or G2-1 for one hour at 4° C. in PBS. Unbound G2-2 was washed away and cells were transferred to tissue culture medium with 10% FCS and then either warmed to 37° C. to allow internalization or maintained at 4° C. The internalization process was stopped after 15, 30, 60 or 120 minutes by transferring the cells into ice-cold buffer with 0.1% […]. Cells were stained with APC-conjugated goat anti-human Fab (Jackson Immuno) and analyzed by FACS. The residual levels of cell surface G2-2 was calculated based on the mean fluorescence intensity (MFI).
(A flow cytometer gives signals particle by particle.)

For assay [5], the target named is T1, peptide AA 36-55 of GP73 (rGP73), …. Briefly: peptide ELISA on coated biotinylated rGP73 AA36-55, anti mouse HRP secondary. How it is done: ELISA was carried out in 96 well plates coated overnight with the biotinylated peptide gp73 AA 36-55 or an unrelated peptide and blocked with 2% gelatine. Antibodies 8A10, G2-2opti (IgG2a) or isotype control antibody (IgG2a) were applied, incubated for 1.5 hours and then washed away. A secondary horse radish peroxidase labeled anti mouse antibody was added for 1 hour and after extensive washing a chromogenic substrate (TMB Amersham) was applied to detect peroxidase.
On the technique in general: In an ELISA, binding on a coated surface is turned into a signal by an enzyme label.

Assay [6] addresses T4, sGP73-10×His, encompassing GP73 AA56 to 401 (human, UniProt Q8NBJ4 56-401).
T4 construct: also called sGP73-His; sGP73-HIS
T4 sequence: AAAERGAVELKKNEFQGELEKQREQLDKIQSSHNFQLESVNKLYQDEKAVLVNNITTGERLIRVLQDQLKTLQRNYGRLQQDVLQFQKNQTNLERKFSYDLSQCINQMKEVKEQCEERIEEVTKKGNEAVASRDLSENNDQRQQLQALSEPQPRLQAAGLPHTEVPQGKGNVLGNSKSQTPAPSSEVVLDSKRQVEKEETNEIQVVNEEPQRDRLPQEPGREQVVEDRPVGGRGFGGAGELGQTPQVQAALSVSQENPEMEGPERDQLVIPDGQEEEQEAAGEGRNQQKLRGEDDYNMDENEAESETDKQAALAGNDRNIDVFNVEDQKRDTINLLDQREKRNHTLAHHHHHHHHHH
The assay can be described thus: ELISA on coated sGP73-His, anti mouse HRP secondary. How it is done: (§1) ELISA was carried out in 96 well plates coated overnight with sGP73 or GP73 AVRR and blocked with 2% gelatine. Antibodies 8A10, G2-2opti (IgG2a) or isotype control antibody were applied, incubated for 1.5 hours and washed away. A secondary Horse radish peroxidase labeled anti mouse antibody was added for 1 hour and after extensive washing a chromogenic substrate (TMB Amersham) was applied to detect peroxidase.

The target in assay [7] is T5, GP73-10×His AVRR, encompassing GP73 AA36 to 401 with a R52A mutation (human, UniProt Q8NBJ4 36-401).
T5 construct: also called GP73 AVRR; GP73-His AVRR
T5 sequence: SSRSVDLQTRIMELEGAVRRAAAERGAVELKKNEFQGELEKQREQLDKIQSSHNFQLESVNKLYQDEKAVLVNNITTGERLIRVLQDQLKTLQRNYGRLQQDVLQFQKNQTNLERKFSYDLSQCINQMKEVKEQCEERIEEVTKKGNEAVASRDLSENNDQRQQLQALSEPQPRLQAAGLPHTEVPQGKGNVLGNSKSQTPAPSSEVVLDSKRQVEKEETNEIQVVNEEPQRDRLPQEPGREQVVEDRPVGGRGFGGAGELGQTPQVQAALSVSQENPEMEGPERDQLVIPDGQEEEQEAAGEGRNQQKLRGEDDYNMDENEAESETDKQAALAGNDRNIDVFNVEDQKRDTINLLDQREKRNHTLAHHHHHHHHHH
The assay can be described thus: ELISA on coated GP73-His AVRR, anti mouse HRP secondary. How it is done: as §1

In assay [8] the target is T2, GP73 (endogenous human GP73 on HEK 293, …). Briefly: flow cytometry, surface staining of HEK 293 cells, axis anti-mouse APC. How it is done:
Detection of surface staining of cells is depicted as continuous line, only secondary antibody control detection is depicted as dashed line as described in Example 4.
Different human and murine cell lines e.g. HuH7, JHH4, HEK293, HEK293-GP73-myc and Ramos were tested by Flow cytometry analysis for expression of GP73 on their cell surface and binding of G2-2, G2-1 and G2-4. […]

B1: G2-1 (human IgG1 heavy chain and human Igk light chain constant regions) (antibody, V domains shown)
VH: EVQLLESGGGVVQPGRSLRLSCAASGFTFSSYAMSWVRQAPGKGLEWVSVISYDGSNKAYADSVKGRFTISRDNSKNTLYLQMNSLRAEDTAVYYCARGRSYYDSSGYLFDYWGQGTLVTVSS
VL: DIQMTQPHSVSESVGKTVIITCTGGGGSIDTNYVQWYQQRPGSAPVTLIYEDDQRPFGVPDRFSAAIDTSSSSASLTISGLTAEDEATYYCQSSHSTAVVFGGGTKVEIKR
notes: scFv clone from a human scFv library, cloned as human IgG1/kappa; also called G2-1-HRP (horse radish peroxidase labeled)
On to B1, for which, in assay [1], the Kd worked out at 3.02 nM, the koff came to 0.00198 s⁻¹ and the kon amounted to 635000 M⁻¹ s⁻¹.

B2: mG2-2 (G2-2 variable regions with murine IgG2a heavy chain and human Igk light chain constant regions) (antibody)
heavy: EVQLLQSGGGVVQPGRSLRLSCAASGFTFSSYGMSWVRQAPGKGLEWVAVISYDGSNKYYADSVKGRFTISRDNSKNTLYLQMNSLRAEDTAVYYCAREGSAGMDVWGQGTTVTVSSASTTAPSVYPLAPVCGDTTGSSVTLGCLVKGYFPEPVTLTWNSGSLSSGVHTFPAVLQSDLYTLSSSVTVTSSTWPSQSITCNVAHPASSTKVDKKIEPRGPTIKPCPPCKCPAPNLLGGPSVFIFPPKIKDVLMISLSPIVTCVVVDVSEDDPDVQISWFVNNVEVHTAQTQTHREDYNSTLRVVSALPIQHQDWMSGKEFKCKVNNKDLPAPIERTISKPKGSVRAPQVYVLPPPEEEMTKKQVTLTCMVTDFMPEDIYVEWTNNGKTELNYKNTEPVLDSDGSYFMYSKLRVEKKNWVERNSYSCSVVHEGLHNHHTTKSFSRTPGK
light: DIQMTQPSSLSASPGASASLTCTLRSDISVGFHRIYWYQQKPGSPPQYLLRYKSDSDKQQGSGVPSRFSGSKDASANAGILLISGLQSDDEADYYCVIWHTSGVVFGGGTKVEIKRTVAAPSVFIFPPSDEQLKSGTASVVCLLNNFYPREAKVQWKVDNALQSGNSQESVTEQDSKDSTYSLSSTLTLSKADYEKHKVYACEVTHQGLSSPVTKSFNRGEC
notes: also called murine G2-2
Consider B2, for which the binding result in assay [2] and in assay [3] was “binds” in each case.

B3: G2-2 (human IgG1 heavy chain and human Igk light chain constant regions) (antibody)
heavy: not shown
light: DIQMTQPSSLSASPGASASLTCTLRSDISVGFHRIYWYQQKPGSPPQYLLRYKSDSDKQQGSGVPSRFSGSKDASANAGILLISGLQSDDEADYYCVIWHTSGVVFGGGTKVEIKRTVAAPSVFIFPPSDEQLKSGTASVVCLLNNFYPREAKVQWKVDNALQSGNSQESVTEQDSKDSTYSLSSTLTLSKADYEKHKVYACEVTHQGLSSPVTKSFNRGEC
notes: scFv clone from a human scFv library, cloned as human IgG1/kappa; also called G2-2-HRP (horse radish peroxidase labeled); anti-rGOLPH antibody G2-2
Turning to B3, in assay [1], the Kd turned out to be 4.29 nM, the koff was determined as 0.00111 s⁻¹ and the kon was determined as 260000 M⁻¹ s⁻¹. The binding result in assay [4] is reported as “binds”.

B4: G2-2opti (IgG2a) (antibody, V domains shown)
VH: QVQLVQSGGGVVQPGRSLRLSCAASGFTFSSYGMHWVRQAPGKGLEWVAVISYDGSNKYYADSVKGRFTISRDNSKNTLYLQMNSLRAEDTAVYYCAREGSAGMDVWGQGTTVTVSS
VL: QAVLTQPSSLSASPGASASLTCTLRSDISVGFHRIYWYQQKPGSPPQYLLRYKSDSDKQQGSGVPSRFSGSKDASANAGILLISGLQSDDEADYYCVIWHTSGVVFGGGTKLTVL
notes: 'a chimeric human/murine version with a murine CH2 and CH2'
As for B4, the binding result is on record as “binds” in assay [5], “no binding (tested: 5.0 ug/ml)” in assay [6] and “binds” in assay [7].

B5: G2-4 (antibody, V domains shown)
VH: QVQLEESGGGLVQPGGSLRLSCATSGFTFTDYYMSWVRQPPGKALEWLGFIRNKAKGYTTEYSASVKGRFTISRDNSQSILYLQMNTLRAEDSATYYCARDPSTNYWYFDVWGAGTTVTVSS
VL: DIVLTQSPSSLAVSAGEKVTMTCKSSQSLLNSRTRKNYLAWYQQKPGQSPKLLIYWASTRESGVPDRFTGSGSGTDFTLTISSVQAEDLAVYYCKQSYNLYTFGGGTKLEIKR
Take B5: in assay [8], the binding result is recorded as “binds”.

Source of the values: patent publication US20210253678A1 (CUREAB, published 2021).
